From the RNAGym collection of RNA variant scans (doi:10.1073/pnas.2313332121)

B1: TPR t1 (parent)
chain: GACCAAUCUGCCCUCAGAGCUCGAGAACAUCUUCGGAUGCAGAGGAGGCAGGCUUCGGUGGCGCGAUAGCGCCAACGUCCUCAACCUCCAAUGCAUCCCACCACAUGAUGAUGCCUGAAGAGCCUUGGUUUUUUG

Variants of: B1
Test: polymerase ribozyme fitness, log enrichment relative to wild type (log ratio); higher = more active; in vitro selection for triplet polymerase activity
Outline: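 A heterodimeric triplet polymerase ribozyme had each of its subunits mutagenized by PCR into a library, which was transcribed. One round of in vitro selection, done in triplicate, annealed each library with a biotinylated primer, its partner subunit and triplets, then incubated it frozen at −7 °C before gel excision of extended constructs, streptavidin-bead capture and RT-PCR. Fitness is the logarithm of genotype enrichment relative to wild-type enrichment, based on Illumina sequencing of inputs and outputs and inverse-variance-weighted replicate averages. A base-2 logarithm is used, and genotypes were kept only with ≥10 input reads and ≥1 read per output.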

Variant	polymerase ribozyme fitness (log ratio)
GACCAAUCUGCACUCAGAGCUCGAGAACAUCUUCGGAUGCAGAGGAGGCAGGCUUCGGUGGCGCGAUAGCUCCAACGUCCUCAACCUCCAAUGCAUCCCACCACAUGAUGAUGCCUCAAGAGCCUCGGUUUUUUG [C12A G71U G117C U126C]	-6.35
GACCAAUCUGCACUCAGAGCUCGAGAACAUCUUCGGAUGCAGAGGAGGCAGGCUUCGGUGGCGCGAUAGCGCCAACGUCCUCAACCUCCAAUGCAUCCCACCACAUGAUGAUGCCUGAAGAGCCUUGGUCUUUUG [C12A U130C]	-1.06
GACCAAUCUGCACUCAGAGCUCGAGAACAUCUUCGGAUGCAGAGGAGGCAGGCUUCGGUGGCGCGAUAGCGCCAACGUCCUCAACCUCCAAUGCAUCCCACCACAUGAUGAUGCCUCAAGCGCCUUGGUUUAUUG [C12A G117C A121C U132A]	-5.13
GACCAAUCUGCACUCAGAGCUCGAGAACAUCUUCGGAUGCAGAGGAGGCAGGCUUCGGUGGCGCGAUAGCGCCAACGUCCUCAACCUCCAAUGCAUCCCACCACAUGAUGAUGCCUGAAGAGCCUUUGUUUUUUG [C12A G127U]	-1.39
GACCAAUCUGCACUCAGAGCUCGAGAACAUCUUCGGAUGCAGAGGAGGCAGGCUUCGGUGGCGCGAUAGCGCCAACGUCCUCAACCUCCAAUGCAUCCCACCACAUGAUGAUGCCUGAAUAGCCUUGGUUUUUUG [C12A G120U]	1.57
GACCAAUCUGCACUCAGAGCUCGAGAACAUCUUCGGAUGCAGAGGAGGCAGGCUUCGGUGGCCCGAUAGCGCCAACGUCCUCAACCUCCAAUGCAUCCCACCACAUGAUGUUGCCUGAAGAGCCUUGGUUUUUUG [C12A G63C A111U]	-4.83
GACCAAUCUGCACUCAGAGCUCGAGAACAUCUUCGGAUGCAGAGGAGGCAGGCUUCGGUGGCGCGAUAGCGCCAACGUCCUCAACCUCCAAUGCAUCCCACCACAUGAUAAUGCCUGAAGAGCCUUGGUUUUUUG [C12A G110A]	-1.57
GACCAAUCUGCGCUCAGAGCUCGAGUACAUCUUCGGAUGCAGAGGAGGCAGGCUUCGGUGGCGCGAUAGCGCCAACGUCCUCAACCUCCAAUGCAUCCCACCACAUGAUGAUGACUGAAGAGCCUUGGUUUUUUG [C12G A26U C114A]	-6.59
GACCAAUCUGCACUCAGAGCUCGAGAACAUCUUCGGAUGCAGAGGAGGCAGGCUUCGGUGGCGCGAUAGCGCCAACGUCCUCAACCUCCAAUGCAUCCCACCACAUGAUGAUGCCUGAAGAGCCUUGUUUUUUUG [C12A G128U]	-2.12
GACCAAUCUGCACUCAGAGCUCGAGAACAUCUUCGGAUGCAGAGGAGGCAGGCUUCGGUGGCGCGAUAGCGCCAACGUCCUCAACCUCCAAUGCAUCCCACCACAUGAUGAUGCCUGAAGAGCCUUGCUUUUUUG [C12A G128C]	-2.18
GACCAAUCUGCGCUCAGAGCUCGAGUACAUCUUCGGAUGCAGAGGAGGCAGGCUUCGGUGGCGCGAUAGCGCCAACAUCCUCAACCUCCAAUGCAUCCCACCACAUGAUGAUGCCUGAAGAGCCUUGGUUUUUUG [C12G A26U G77A]	-2.58
GACCAAUCUGCGCUCAGAGCUCGAGAACAUCUUCGGAUGCAGUGGAGGCAGGCUUCGGUGGCGCGAUAGCGCCAUCGUCCUCAACCUCCAAUGCAUCCCACCACAUGAUGAUGCCUGAAGAGCGUUGGUUUUUUG [C12G A43U A75U C124G]	0.348
GACCAAUCUGCACUCAGAGCUCGAGAACAUCUUCGGAUGCAGAGGAGGCAGGCUUCGGUGGCGCGAUACCGCCAACGUCCUCAACCUCCAAUGCAUCCCACCACAUGAUGAUGCCUGAAGAGCCUUGGUUUUUUG [C12A G69C]	-2.39
GACCAAUCUGCACUCAGAGCUCGAGAACAUCUUCGGAUGCAGAGGAGGCAGGCUUCGGUGCCGCGAUAGCGCCAACGUCCUCAACCUCCAAUGCAUCCCACCACAUGAUGAUGCCUGAAGAGCCUUGGUUUUUUG [C12A G61C]	-2.46
GACCAAUCUGCACGCAAAGAUCGAGAACAUCUUCGGAUGCAGAGGAGGCAGGCUUCGGUGGCGCGAUAGCGCCAACGUCCUCAACCUCCAAUGAAUCCCACCACAUGAUGAUGCCUGAAGAGCCUUGGUUUUUUG [C12A U14G G17A C20A C94A]	-3.13
GACCAAUCUGCGCUCAGAGCUCGAGAACAUCUUCGGAUGCCGAGGAGGCAGGCUUCGGUGGCGCGAUAGCGCCAACGUCCUCAACCUCCAAUGCAUCCCACCACAUGAUGAUGCCUGAAGAGCCUUGGUUUUUUG [C12G A41C]	-0.0245
GACCAAUCUGCGCUCAGAGCUCGAGAACAUCUUCGGAUGCAGAGGUGGCAGGCUUCGGUGGCGCGAUAGCGCCAACGUCCUCAACCUCCAAUGCAUCCCACAACAUGAUGAUGCCUGAAGAGCCUUGGUUUUUUG [C12G A46U C102A]	-2.85
GACCAAUCUGCACUCAGAGCUCGAGAACAUCUUCGGAUGCAGAGGAGGCAGGCUUCGGUGGCGCGAUAGCGCCAACGUCCUCAACCUCCAAUGCAUCCCACCACAUGAUGAUGCCUGAAGAGCCUUGGUUUUAUG [C12A U133A]	-0.907
GACCAAUCUGCGCUCAGAGCUCGAGAACAUCUUCGGAUGCAGAGGCGGCAGGCUUCGGUUGCGCGAUAGCGCCAACGUCCUCAACCUCCAAUGCAUCCCACCACAUGACGAUGCCUGAAGAGCCUUGGUUUUUUG [C12G A46C G60U U109C]	-6.49
GACCAAUCUGCGCUCAGAGCUCGAGAACAUCUUCGGAUGCAGUGGAGGCAGGCUUCGGUGGCGCGAUAGCGCCAACGUCCUCAACCUCCAAGGCAUCCCACCAAAUGAUGAUGCCUUUAGAGCCUUGGUUUUUUG [C12G A43U U92G C104A G117U A118U]	-5.1
GACCAAUCUGCGCUCAGAGCUCGAGAACAUCUUCGGAUGCAGAGGCGGCAGGAUUCGGUGGCGCGAUAGCGCCAACGUCCUCAACCUCCAAUGCAUCCCACCAAAUGAUGAUGCCUGAAGAGUCUUGGUUUUUUG [C12G A46C C53A C104A C123U]	-1.14

Variant	polymerase ribozyme fitness (log ratio)
GACCAAUCUGCGCUCAGAGCUCGAGACCAUCUUCGGAUGCAGAGGAGGCAGGCUUCGGUGGCGCGAUAGCGCCAACGUCCUCAACCUCCAAUGCAUCCCACCACAUGAUGAUGCCUGAAGAGCCUUGGUUUUUUG [C12G A27C]	-2.38
GACCAAUCUGCACUCAGAGCUCGAGAACAUCUUCGGAUGCAGAGGAGGCAGGCUUCGGUGGCGCGAUAGCGCCAACGUCCUCAACCUCCAAUGCAUCCCACCACAUGAUAAUGCCUGAAGAGUCUUGGUUUUUUG [C12A G110A C123U]	-1.84
GACCAAUCUGCACUCAGAGCUCGAGAACAUCUUCGGAUGCAGAGGAGGCAGGCUUCGGUGGCUCGAUAGGGCCAACGUCCUCAACCUCAUAUGCAUCCCUCCACAUGAUGAUGCCUGAAGGGCCUUGGUUUUUUG [C12A G63U C70G C89A A90U A100U A121G]	-1.48
GACCAAUCUGCACUCAGAGCUCGAGAACAUCUUCGGAUGCAGAGGAGGCAGGCUUCGGUGGCGCGAUAGCGCCAACGUCCUCAACCUCCAAUGCAUCCCACCACAUGAUGAUGCCUGAAGAACCUUGGUUUUUUG [C12A G122A]	-0.788
GACCAAUCUGCACUCAGAGCUCGAGAACAUCUUCGGAUGCAGAGGAGGCAGGCAUCGGUGGCGCGAUAGCGCCAACGUCGUCAACCUCCAAUGCAUCCCACCACAUGAUGAUGCCUGAAGAGCCUUGGUUUUUUG [C12A U54A C80G]	-4.17
GACCAAUCUGCGCUCAGAGCUCGAGAACAUCUUCGGAUGCUGACGAGGCAGGCUUCGGUGGCGUGAUAGCGCCAACGUCCUGAACCUCCAAUGCAUCCCACCACAUGAUGAUUCCUGAAGAGCCUUGGUUUUUUG [C12G A41U G44C C64U C82G G113U]	-5.32
GACCAAUCUGCACUCAGAGCUCGAGAACAUCUUCGGAUGCAGAGGAGGCAGGCUUCGGUGGCGCGAUAGCGCCAACGUCCUCAACCUCCAAAGCAUCCCACCACAUGAUGAUGCCUGAAGAGCCUUGGUUUUUUG [C12A U92A]	-3.47
GACCAAUCUGCGCUCAGAGCUCGAGUACAUCUUUGGAUGCAUAUGAGGCAGGCUUCGGUGGGGCGAUAGCGCCAACGUCCUCAACCUCCAAUGCACCCCACCACAAGAAGAUGCGUGAAGAGCCUUGGUUUUUUG [C12G A26U C34U G42U G44U C62G U96C U106A U109A C115G]	-6.33
GACCAAUCUGCGCUCAGAGCUCGAGACCAUCUUCGGAUGCAGAGGAGGCAGGCUUCGGUGGCGCGAUAGCGCCAACGUCCUCAACCUCCAAUGCAUCCCACCAUAUGAUGAUUCCUGAAAAACCUUGGUAUUUUG [C12G A27C C104U G113U G120A G122A U130A]	-6.9
GACCAAUCUGCACUCAGAGCUCGAGAACAUCUUCGGAUGCAGAGGAGGCAGGCUUCGGUGGCGCGAUAGCGCCAACGUCCUCAACCUCCAAUGCAUCCCACCACAUGAUGAUACCUGAAGAGCCUUGGUUUUUUG [C12A G113A]	-2.14
GACCAAUCUGCACUCAGAGCUCGAGAACAUCUUCGGAUGCAGAGGAGGCAGGCUUCGGUGGCGCGAUAGCGCCAACGUCCUCAACCUCCAAUGCAUCCCACCACAUGAUGAUGCCUUAAGAGCCUUGGUUUUUUG [C12A G117U]	-1.72
GACCAAUCUGCACUCAGAGCUCGAGAACAUCUUCGGAUGCAGAGGAGGCAGGCUUCGGUGGCGCGAUAGCGCCAACGUCCUCAACCACGAAUGAAUCCCACCACAUGAUGAUACCUGAAGAGCCUUGGUUUUUUG [C12A U87A C89G C94A G113A]	-6.04
GACCAAUCUGCGCUCAGAGCUCGAGAACAUCUUCGGCUGCAGAGGAGGCAGGCUUCGGUCGCGCGAUAGCGCCAACGUCCUCUACCUCCACUGCAUCCCACCACAUGAUGAUGCCUGAAUAGCCUUGGUUUUUUG [C12G A37C G60C A83U A91C G120U]	-0.68
GACCAAUCUGCGCUCAGAGCUCGAGAGCAUCUUCGGAUCCAGAGGAGGCAGGCUUCGGUGGCGCGAUAGCGCCAACGUCCUCAACCUCCAAUGCAUCCCACCACAUGAUGAUGCCUGAAGAGCCUUGGUUUUUUG [C12G A27G G39C]	-3.18
GACCAAUCUGCACUCAGAGCUCGAGAACAUCUUCGGAUGCAGAGGAGGCAGGCUUCGGUGGCGCGAUAGCUCCAACGUCCUCAACCUCCAAUGCAUCCCACCACAUGAUGAUGCCUGAAGAGCCUUGGUUUUUUG [C12A G71U]	-0.821
GACCAAUCUGCACUCAGAGCUCGAGAACAUCUUCGGAUGCAGAGGAGGCAGGCUUCGGUGGCGCGAUAGCGCCAACGUCCUCAACCUCCAAUGCAUCCCACCACAUGAUGACGCCUGAAGAGCCUUGGUUUUUUG [C12A U112C]	0.835
GACCAAUCUGCGCUCAGAGCUCGAGAACAUCUUCGGAUGCAGAGGGGACAGGCUUCGGUGGCGCGAUAGCGCCAACGUACUCAACCUCCAAUGCAUCCCACCACAUGAUGAUGCCUGAAGAGCCUUGGUUUUUUG [C12G A46G G48A C79A]	-2.27
GACCAAUCUGCGCUCAGAGCUCGAGAACAUCUUCGGAUGCAGAGGUGGCAGGCUUCGGUGGCGCGAUAGCGCCAACGUCCUGAACCUCCAAUGCAUCCCACCACAUGAUGAUGCCUGAAGAGCCUUGGUUUUUUG [C12G A46U C82G]	-1.75
GACCAAUCUGCGCUCAGAGCUCGAGCCCAUCUUCGUAUGCAGAGGAGGCAGGCUUCGGUGGCGCGAUAGCGCCAACGUCCUCAACCUCCAAUGCAUACCAUCACAUGAAGAUGCCUGAAGAGCCUUGGUUUUUUG [C12G A26C A27C G36U C97A C101U U109A]	-7.51
GACCAAUCUGCGCUCAGAGCUCGAGAACAUCUUCGGAUGCAGUGGAGGCAGGCUUCGGUGGCGCGAUAGCGCCAACGUCCUCAACCUCCAAUGCAUCCCACCACAUGAUGAUGCCUGAAGAGCCUUGGUUUUUUG [C12G A43U]	-0.979
GACCAAUCUGCACUCAGAGCUCGAGAACAUCUUCGGAUGCAGAGGAGGCAGGCUUCGGUGGCGCGAUAACGCCAACGUCCUCAACCUCCAAUGCAUCCCCCCACAUGAUGAUGCCUGAAGCGCCUUGGUUUUUUG [C12A G69A A100C A121C]	-3.75
